From article PMC7327021

Molecular target: CTD1, C-terminal domain of major ampullate spidroin 1 of Latrodectus hesperus (Latrodectus hesperus)
Assay: non-reducing SDS-PAGE; non-reducing SDS-PAGE of fractions of the Ni-IMAC purification of CTD1; disulphide-linked dimer

- stoichiometry N: 2
Substance: CTD1, C-terminal domain of major ampullate spidroin 1 of Latrodectus hesperus (domain or fragment)
